B1: soluble H-2K^b (soluble extracellular domains; heavy chain residues 1-274 with C-terminal His-tag and β2-microglobulin residues 1-99) (other)
chain: GPHSLRYFVTAVSRPGLGEPRYMEVGYVDDTEFVRFDSDAENPRYEPRARWMEQEGPEYWERETQKAKGNEQSFRVDLRTLLGYYNQSKGGSHTIQVISGCEVGSDGRLLRGYQQYAYDGCDYIALNEDLKTWTAADMAALITKHKWEQAGEAERLRAYLEGTCVEWLRRYLKNGNATLLRTDSPKAHVTHHSRPEDKVTLRCWALGFYPADITLTWQLNGEELIQDMELVETRPAGDGTFQKWASVVVPLGKEQYYTCHVYHQGLPEPLTLRWEPPPSTVSNM

Assays:
[1] = target: B1; test: inhibition assay with soluble H-2K^b, 4° C.
[2] = target: B1; test: inhibition assay with soluble H-2K^b, 23° C.
[3] = target: B1; test: inhibition assay with soluble H-2K^b, 37° C.
[4] = target: SEV9 ([…]), Sendai virus NP324-332 (Sendai virus); test: inhibition assay with soluble H-2K^b, 4° C.
[5] = target: SEV9 ([…]), Sendai virus NP324-332 (Sendai virus); test: inhibition assay with soluble H-2K^b, 23° C.
[6] = target: SEV9 ([…]), Sendai virus NP324-332 (Sendai virus); test: inhibition assay with soluble H-2K^b, 37° C.
[7] = target: T1, MHC class I H-2K^b on RMA-S cells (C57BL/6 TAP2-deficient cells) (mouse, UniProt P01887 21-119; P01901 22-369); test: peptide stabilisation assay on RMA-S cells, flow cytometry with anti-H-2K^b
T1 construct: whole, on cells; Cell surface H-2K^b stabilised by added peptide and detected with anti-H-2K^b antibody HB-158
T1 sequence (MHC heavy, looked up): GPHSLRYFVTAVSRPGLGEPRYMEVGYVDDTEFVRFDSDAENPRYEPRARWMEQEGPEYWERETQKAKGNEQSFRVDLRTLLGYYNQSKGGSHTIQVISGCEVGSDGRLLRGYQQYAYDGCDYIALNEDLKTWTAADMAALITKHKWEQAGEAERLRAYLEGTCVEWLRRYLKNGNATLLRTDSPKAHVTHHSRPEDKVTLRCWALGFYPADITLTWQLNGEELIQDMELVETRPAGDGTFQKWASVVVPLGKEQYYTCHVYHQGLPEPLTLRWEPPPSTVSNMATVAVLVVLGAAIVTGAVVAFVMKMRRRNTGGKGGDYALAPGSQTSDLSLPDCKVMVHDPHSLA
T1 sequence (b2m, looked up): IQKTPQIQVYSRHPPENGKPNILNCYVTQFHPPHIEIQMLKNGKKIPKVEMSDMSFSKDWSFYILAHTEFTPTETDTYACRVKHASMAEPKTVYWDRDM
Protocol: MHC class I molecules in the murine cell line RMA-S (C57BL/6 TAP2-deficient cells) can be used to measure the direct binding of peptides to class I molecules in vitro. […] The cells were washed once again and 100 μl (1:500 dilution) of FITC-conjugated sheep (Fab′)₂ anti-mouse immunoglobulin was added and incubated for 45 min at 4° C.; after further washing, cells were analyzed by FACScan.

[8] = target: B1; test: inhibition assay with soluble H-2K^b, 23° C. and 37° C.
[9] = target: B1; test: inhibition assay with soluble H-2K^b, 23° C.; remark: listed apart in the source

SIINFEKL [OVA8 (SIINFEKL), Chicken ovalbumin257-264]
Kd [1]: 6 nM
Kd [2]: 10 nM
Kd [3]: 82 nM

B1
Kd [4]: 5 nM
Kd [5]: 3 nM
Kd [6]: 30 nM

B2: MUC1-8 (SAPDTRPA) (peptide)
peptide: SAPDTRPA
notes: Synthetic peptide, purity >95%; also called MUC1-8 peptide; parent non-canonical peptide MUC1-8
Kd [1]: 433 nM
Kd [2]: 877 nM
Kd [3]: 37000 nM
peptide concentration that stabilised H-2K^b [7]: > 100000 nM

SAPDFRPA (Synthetic peptide) [MUC1-8-5F (SAPDFRPA)]
Kd [1]: 460 nM
Kd [2]: 130 nM
Kd [3]: 4900 nM
fold increase in affinity against MUC1-8 [8]: ≥ 7 fold
peptide concentration that stabilised H-2K^b [7]: > 100 nM

SAPDTRPL (Synthetic peptide) [MUC1-8-8L (SAPDTRPL)]
Kd [1]: 150 nM
Kd [2]: 250 nM
Kd [3]: 8900 nM
fold increase in affinity against MUC1-8 [8]: ≥ 3 fold
peptide concentration that stabilised H-2K^b [7]: > 1000 nM

SAPDFRPL (Synthetic peptide) [MUC1-8-5F8L (SAPDFRPL)]
fold increase in affinity against MUC1-8 [9]: 14 fold
Kd [1]: 160 nM
Kd [2]: 60 nM
Kd [3]: 300 nM
peptide concentration that stabilised H-2K^b [7]: > 1 nM

Reference: patent US20090317414A1 (4G VACCINES, published 2009)
